In US20100081612A1 (GENERAL HOSPITAL, published 2010):
Where no end group is shown, it is not given here.

T1: rat PTHR endogenously expressed in ROS 17/2.8 cells (rat, UniProt P25961 27-591)
T1 construct: whole, on cells; also called endogenous PTHR; PTHR in ROS 17/2.8 cells
T1 sequence (looked up): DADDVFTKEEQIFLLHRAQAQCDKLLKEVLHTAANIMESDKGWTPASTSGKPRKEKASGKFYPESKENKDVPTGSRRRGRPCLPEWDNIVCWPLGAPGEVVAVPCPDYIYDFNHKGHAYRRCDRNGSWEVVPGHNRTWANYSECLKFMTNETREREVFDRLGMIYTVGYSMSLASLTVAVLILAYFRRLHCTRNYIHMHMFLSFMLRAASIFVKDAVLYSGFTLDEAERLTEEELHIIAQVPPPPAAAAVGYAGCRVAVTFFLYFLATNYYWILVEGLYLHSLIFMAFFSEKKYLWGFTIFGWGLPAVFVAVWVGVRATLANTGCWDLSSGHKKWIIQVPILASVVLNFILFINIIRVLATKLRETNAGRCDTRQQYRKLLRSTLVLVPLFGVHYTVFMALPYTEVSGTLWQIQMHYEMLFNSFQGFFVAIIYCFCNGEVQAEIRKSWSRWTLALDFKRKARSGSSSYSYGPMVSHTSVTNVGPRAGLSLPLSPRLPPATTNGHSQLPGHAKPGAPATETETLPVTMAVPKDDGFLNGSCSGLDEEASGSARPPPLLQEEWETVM

T2: wild-type human PTHR (human, UniProt Q03431 27-593)
T2 construct: whole, on cells; also called PTHR-WT; intact PTHR
T2 sequence (looked up): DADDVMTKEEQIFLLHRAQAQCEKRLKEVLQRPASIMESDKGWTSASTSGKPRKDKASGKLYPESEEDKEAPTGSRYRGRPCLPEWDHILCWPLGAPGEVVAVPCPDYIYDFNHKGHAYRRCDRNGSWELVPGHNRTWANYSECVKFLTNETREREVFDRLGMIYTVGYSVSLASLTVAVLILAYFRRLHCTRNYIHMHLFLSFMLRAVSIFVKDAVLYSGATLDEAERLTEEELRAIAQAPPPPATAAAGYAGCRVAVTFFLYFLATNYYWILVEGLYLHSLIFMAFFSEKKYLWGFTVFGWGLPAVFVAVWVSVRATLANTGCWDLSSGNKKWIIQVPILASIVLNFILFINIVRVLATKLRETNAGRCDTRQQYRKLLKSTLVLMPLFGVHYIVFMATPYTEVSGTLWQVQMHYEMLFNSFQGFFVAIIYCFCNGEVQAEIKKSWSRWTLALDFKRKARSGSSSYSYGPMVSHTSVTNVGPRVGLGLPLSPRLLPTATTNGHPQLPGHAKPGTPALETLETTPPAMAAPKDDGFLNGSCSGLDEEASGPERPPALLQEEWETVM

B1: [Ala^1,Arg^19]hPTH(1-31)NH2 Arg^20→Glu (peptide)
peptide: AVSEIQLMHNLGKHLNSMREVEWLRKKLQDV-NH2
B2: [Ala^1,Arg^19]hPTH(1-31)NH2 (peptide)
peptide: AVSEIQLMHNLGKHLNSMRRVEWLRKKLQDV-NH2
notes: also called [Ala^1,Arg^19]PTH(1-31)NH2; [Ala^1,Arg^19]PTH(1-31)
B3: [Ala^1,Arg^19]hPTH(1-31)NH2 Trp^23→Glu (peptide)
peptide: AVSEIQLMHNLGKHLNSMRRVEELRKKLQDV-NH2
B4: [Ala^1,Arg^19]hPTH(1-31)NH2 Leu^28→Glu (peptide)
peptide: AVSEIQLMHNLGKHLNSMRRVEWLRKKEQDV-NH2
B5: PTH(1-31)NH2 Met^18→Ala (peptide)
peptide: SVSEIQLMHNLGKHLNSAERVEWLRKKLQDV-NH2
B6: PTH(1-31)NH2 Glu^19→Ala (peptide)
peptide: SVSEIQLMHNLGKHLNSMARVEWLRKKLQDV-NH2
B7: PTH(1-31)NH2 Ser^17→Ala (peptide)
peptide: SVSEIQLMHNLGKHLNAMERVEWLRKKLQDV-NH2
B8: PTH(1-31)NH2 Gln^29→Ala (peptide)
peptide: SVSEIQLMHNLGKHLNSMERVEWLRKKLADV-NH2
B9: PTH(1-31)NH2 Trp^23→Ala (peptide)
peptide: SVSEIQLMHNLGKHLNSMERVEALRKKLQDV-NH2

molecular target: T1, rat PTHR endogenously expressed in ROS …; experiment: competition binding, ROS 17/2.8 cells, 125I-PTH(1-34) tracer
Protocol: (§1) Receptor binding—Binding to the wild-type human PTHR in intact HKRK-B7 cells and ROS 17/2.8 cells was assessed using ¹²⁵I-PTH(1-34) as a tracer radioligand, as described (Shimizu, M., (2001) Endocrinology 142:3068-3074). In brief, the cells in 24-well plates (about 500,000 cells per well) were incubated in binding buffer containing radioligand (about 100,000 cpm per well) with or without unlabeled peptide ligand (3×10⁻⁹ to 1×10⁻⁵ M) for four hours at 15° C. The binding mixture was then removed by aspiration, the cells were rinsed three times with binding buffer, lysed in 1 M NaOH, and the entire lysate was counted for gamma-irradiation in a gamma counter. Binding to PTHR-delNt in COS-7 cell membranes was assessed in 96-well, vacuum filtration plates (Multiscreen-Durapore HV, […], Millipore Corp., Millford, Mass.) using ¹²⁵I-[Aib^{1,3},M]PTH(1-15)NH₂ as a tracer radioligand, as described (Dean, T., (2006) Mol Endocrinol 20:931-942). In brief, cell membranes (20 μg/well) were incubated in membrane binding buffer containing radioligand (30,000 cpm/well) with or without unlabeled peptide ligand (3×10⁻⁹ to 1×10⁻⁵ M) for 90 minutes at 21° C. The plates were then subject to rapid vacuum filtration, the filters were washed once with buffer, detached from the plate and counted for gamma-irradiation in a gamma counter. Non-specific binding was defined as the binding observed in the presence of 1×10⁻⁶ M PTH(1-31)NH₂ for HKRK-B7 and ROS 17/2.8 cells, and 1×10⁻⁶ M [Aib^{1,3},M]PTH(1-15)NH₂ for PTHR-delNt. Specifically bound radioactivity was calculated as a percentage of the radioactivity specifically bound in the absence of competing ligand.
Effects on cAMP and IP signaling—Selected analogs of [Ala¹,Arg¹⁹]hPTH(1-31)NH₂ with substitutions that markedly impaired binding to HKRK-B7 cells were assessed for their capacity to bind to the PTHR in ROS 17/2.8 cells and to stimulate cAMP-signaling responses in these cells. These bone-derived cells endogenously express the rat PTHR at a more physiological level than is found in HKRK-B7 cells (approximately 80,000 PTHRs per cell vs. 950,000 PTHRs per cell) and, have generally been found (data not shown) to yield closer correlations between PTH analog binding affinity and cAMP-signaling potency than do HKRK-B7 cells, presumably due to their lower PTHR expression level.

| IC50 [nM] | Binder |
| --- | --- |
| 5800 | B1 |
| 1.6 | B2 |
| 220 | B3 |
| 3100 | B4 |

molecular target: T2, wild-type human PTHR; experiment: competition binding, HKRK-B7 cells, 125I-PTH(1-34) tracer
Method in brief: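 Intact HKRK-B7 cells stably expressing hPTHR incubated 4 h at 15° C with ¹²⁵I-PTH(1-34) tracer and unlabeled peptide (3×10⁻⁹ to 1×10⁻⁵ M). Nonspecific binding defined with 1×10⁻⁶ M PTH(1-31)NH₂. Bound activity counted after lysis and expressed as % specific binding without competitor; values in nM, mean ± s.e.m.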

| IC50 [µM] | Binder |
| --- | --- |
| > 10 | B1 |
| 0.038 | B2 |
| 6.04 | B3 |
| 10.4 | B4 |

molecular target: T1, rat PTHR endogenously expressed in ROS …; experiment: cell-based or functional assay

| cAMP EC50, ROS 17/2.8 cells [nM] | Binder |
| --- | --- |
| 59 | B1 |
| 0.78 | B2 |
| 4 | B3 |
| 11 | B4 |

molecular target: T2, wild-type human PTHR; experiment: competition binding, HKRK-B7 cells, 125I-PTH(1-34) tracer; remark: another data set of the same source

| fold change in binding affinity vs PTH(1-31)NH2 [fold] | fold enhancement in binding affinity vs PTH(1-31)NH2 [fold] | fold reduction in binding affinity vs PTH(1-31)NH2 [fold] | fold reduction in binding affinity vs [Ala^1,Arg^19]PTH(1-31)NH2 [fold] | Binder |
| --- | --- | --- | --- | --- |
| ≤ 2 |  |  |  | B5 |
|  | ≤ 2 |  |  | B6 |
| ≤ 2 |  |  |  | B7 |
|  | ≤ 2 |  |  | B8 |
|  |  | 19 |  | B9 |
|  |  |  | ≥ 150 | B1 |

molecular target: T2, wild-type human PTHR; experiment: as above; remark: another data set of the same source
Protocol: as §1
Alanine-Scan of the PTH(17-31) domain—Each residue in the (17-31) region of PTH(1-31)NH₂ was individually replaced with alanine and the effects of the substitutions on binding to the intact human PTHR stably expressed in HKRK-B7 cells was assessed. Competition binding studies were performed using whole cells and ¹²⁵I-PTH(1-34) (¹²⁵I-[Nle^{8,21},Tyr³⁴]ratPTH(1-34)NH₂) as a tracer radioligand.

| IC50 [nM] | Binder |
| --- | --- |
| 92 | B5 |
| 49 | B6 |
| 57 | B7 |
| 44 | B8 |
| 1310 | B9 |

molecular target: T2, wild-type human PTHR; experiment: cell-based or functional assay

| inositol phosphate (IP) production, peptide at 1×10^-6 M [fold] | Binder |
| --- | --- |
| 4 | B5 |
| 4 | B6 |
| 4 | B7 |
| 4 | B8 |
| 4 | B9 |

molecular target: PTHR-delNt (human) (UniProt Q03431); experiment: competition binding, COS-7 membranes, 125I-[Aib1,3,M]PTH(1-15) tracer

| IC50 [nM] | fold reduction in binding affinity vs PTH(1-31)NH2 [fold] | fold reduction in binding affinity vs [Ala^1,Arg^19]PTH(1-31)NH2 [fold] | Binder |
| --- | --- | --- | --- |
| 8800 |  |  | B5 |
| 2940 |  |  | B6 |
| 4580 |  |  | B7 |
| 1930 |  |  | B8 |
| 7360 | 2 |  | B9 |
| 776 |  | < 3 | B1 |
| 397 |  |  | B2 |
| 434 |  | < 3 | B3 |
| 974 |  | < 3 | B4 |
